Data taken from patent US9713645B2, “Short interference RNA gene delivery system for systemic circulation” (INDUSTRY-UNIVERSITY COOPERATION FOUNDATION HANYANG …, priority 2012, dated 2017).

How the values were obtained:
[1] = tested on: SCC7 cells; assay: Luciferase assay for gene expression efficiency; assay type: cell-based; conditions: plasmid luciferase 4 μg, charge ratio 12, 48 h, FIG. 6
Procedure: In this example, luciferase gene expression was measured using a luciferase assay kit and cell viability was analyzed by MTT assay.
A luciferase assay kit was purchased from Promega (USA). A DC protein assay kit and a bovine serum albumin standard were purchased from Bio-Rad Laboratories (USA). SCC7 cells were seeded onto a 24-well plate at 2×10^4 cells/well. 24 h after seeding, the cells were transfected with plasmid luciferase (4 μg)/PEG-R9 complexes (charge ratio 12).
PEI complexes in a charge ratio of 8 were used as control. After 48-h incubation, the cells was washed with PBS and treated with 150 μl of a 1× cell lysis buffer reagent for 20 min. The cell lysate was obtained by scrapping, transferred to a 1.5 ml microtube, and centrifuged at 13,000 rpm for 3 min. The luminescence values of the cell lysate were measured using a 96-well plate photometer (Berthold Detection Systems, Germany) with a 20 s integration time and were expressed as relative luminescence units (RLU) per mg of cell protein.
Proteins were determined with the DC protein assay kit using the bovine serum albumin standard. Based on the above procedure, PEG500 and PEG1000 were compared to find which one would be most optimal.

[2] = tested on: SCC7 cells; assay: MTT assay for cell viability; assay type: cell-based; conditions: FIG. 6
Procedure: Cell viability was measured by MTT [3-(4,5-dimethylthiazol-2-yl)-2,5-diphenyltetrazolium bromide] assay.
SCC7 cells were incubated in a 24-well plate and treated with R9, PEG-R9 complexes, and PEI complexes in the specified charge ratios. 48 h after transfection, 50 μl of MTT reagent and 500 μl of a medium were added to each well, followed by culture at 37° C. for 3 h. After removal of the culture media, 500 μl of dimethyl sulfoxide (DMSO) was added to each well, followed by culture at room temperature for 20 min. The absorbance was measured at 570 nm.

[3] = Sizes and zeta potentials of siVEGF conjugates with different delivery systems; assay type: physicochemical; conditions: FIG. 7
Procedure: siVEGF was conjugated with different kinds of delivery systems. The sizes and zeta potentials of the conjugates were analyzed to find which delivery system would be optimal for siRNA delivery. A group of cys-R9-cys, PEG-R9, and PEG-cys-R9-cys delivery systems and a group of PEG-cys-R9-cys, PEG-TAT, and PEG-cys-TAT-cys delivery systems were used, and their mean diameters were measured and compared.

[4] = tested on: cells; assay: Intracellular transfection efficiency of D-R9 structures complexed with luciferase DNA; assay type: cell-based; conditions: complexes with luciferase DNA, charge ratio 1:5; FIG. 4
Procedure: In the PEG-R9 structure, PEG was attached to C-(D-R9)-C. To confirm whether the C-(D-R9)-C structure was optimum, the C-(D-R9)-C structure was compared with G-(D-R9)-G, G-(D-R9)-C, and C-(D-R9)-G structures. Each of the G-(D-R9)-G, G-(D-R9)-C, C-(D-R9)-G, and C-(D-R9)-C delivery systems formed complexes with luciferase DNA in a charge ratio of 1:5. The intracellular transfection efficiencies of the complexes into cells were evaluated.

Row | Substance | intracellular gene delivery efficiency by luciferase assay [1] | cytotoxicity (in words) ([2]; 48 h after transfection) | cell viability [2] | particle size compared with the PEG-unbound delivery system [3] | intracellular transfection efficiency [4]
1 | PEG-Cys-(D-R9)-Cys [PEG-R9] | efficiently deliver the gene into the cells | much lower than the other gene delivery systems | at least 95% | smaller | 
2 | Cys-(D-R9)-Cys [C-(D-R9)-C] |  |  |  |  | high transfection efficiencies
